40 sequences from the nanobody polyreactivity screen of Harvey et al. (2022) can be followed below.

A short description of the data set: yeast display, Sf9 membrane polyspecificity reagent, FACS + sequencing; frameworks hold sequencing errors. Put shortly:
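In a synthetic yeast display library (Saccharomyces cerevisiae BJ5465), nanobody expression was induced with galactose for 36–48 hours. FACS gates were set low and high (top ~1%) using anti-HA fluorescence for expression and streptavidin fluorescence for binding of the Sf9 membrane reagent. Each polyreactivity label is drawn from the gate of origin.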
Turning to “QVQLVESGGGLVQAGGSLRLSCAASGSIIRRYAMGWYRPAPGKERELVAAISSGGSTYYADSVKGRFTISRDNAKNTVYLQMNSLKPEDTAVYYCAALYYQITTTHYLHLHYDYWGEGTQVTVSS”, the “polyreactivity (PSR sort gate)” value was “low polyreactivity”. Regarding “QVQLVESGGGLVQAGGSLRLSCAASGYIFAWNAMGWYRQAPGKERQLVAAIRSSSGRTYYADSVKGRFTISRDNAKNTVYLLMNSLKPEDTAVYYCAASYAGGAVYYKYYSWGQGTQVTVSS”, the “polyreactivity (PSR sort gate)” value is given as “high polyreactivity”. On to “QVQLVESGVGLVQAGGILRLSCAASGFIFALNAMGWYRQAPGKERELVATIDSTSGSTYYADSVKGRFTISRDNAKNTVYLEMNSLKPEDTAVYYCAVVHAQSAPMDYWGQGTQVTVSS”, for which the “polyreactivity (PSR sort gate)” value was “low polyreactivity”.

Consider “QVQLVESGGGLVQAGGSLRLSCAASGSTFGPYARGWSRQAPGKERELVSTITRNGGSTYYADSVKGRFTISRDNAKNTVYLQMNSLKPEDTAVYYCNAEGRWSSFTQRMDYWGQGTQVTVSS”, for which the “polyreactivity (PSR sort gate)” value is given as “low polyreactivity”. In the case of “QVQLVESGGGLVQAGGSLRLSCAASGLIFGPYAMGWYRQAPGKERELVAGISRGGSTYYADSVKGRFTISRDNAKNTVYLQMNSLKPEDTAVYYCNAYTYPPYYSKWVRYRYDYWGQGTQVTVSS”, the “polyreactivity (PSR sort gate)” value is “high polyreactivity”.

As to “QVQLVESGGGLVQAGGSLRLSCAASGYIFVRYAMGWYRQAPGKERELVAAINSSRGRTYYADSVKGRFTISRDNAKNTVSLQMNSLKPEDTAVYYCGAYGYYRSGYRALEGYWGQGTQVTVSS”, the “polyreactivity (PSR sort gate)” value is recorded as “high polyreactivity”. For the sequence “QVQLVESGGGLVQAGGSLRLSCAATGRIFSIYAMGWYRQAPGKERELVAAISGGGSTYYADSVKGRFTISRDNAKNTVYLQMNSLKPEDTAVYYCAALQSYYRYFGYDYWGQGTQVTVSS”, the “polyreactivity (PSR sort gate)” value is “low polyreactivity”. For “QVQLVESGGGLVQAGGSLRLSCAASGSTFYRNAMGWYRQAPGKERAFVAAISFRGGGTYADSVKGRFTISRDNAKNTVYLQMNSLKPEDTAVYYCAADHLSYPRRYEYWGQGTQVTVSS”, the “polyreactivity (PSR sort gate)” value was “low polyreactivity”. For the sequence “QVQLVESGGGLDQAGGSLRISCAASGSTLLGNAMGWYRQAPGKERELVAAISTSGDSTNYADSVKGRFTISRDNAKNTVYLQMNSLKPEDTAVYYCNAGGYLISDVDRVGYWGQGTQVTVSS”, the “polyreactivity (PSR sort gate)” value was “low polyreactivity”.

For the sequence “QVQLVESGGGLVQAGGSLRLSCAPSGRIFGGYTMGGYRQAHGKVRELVASINSGGSTAYADSVKGRFTISRDNAKNTVYLQMNSLKPEDTAVYYCNAYLVYSYSPSHYYGFGYWGQGTQVTVSS”, the “polyreactivity (PSR sort gate)” value is “high polyreactivity”.

Turning to “QVQLEESGGGLVQAGGRLRLSCAASGSIFYVYAMGWYRQAPGKERELVASINKSGGSTYFADSVKGRFTISRDNAKNTVYLQMNSLKPEDTAVYYCAARTGWPRVGFQYPAHVGFDYWGQGTQVTVSS”, the “polyreactivity (PSR sort gate)” value is listed as “low polyreactivity”. Regarding “QVQLVESGGRLVQAGGSLRLSCAASGSNFETYDMGWYRQAPRKERELVAAITLSGGSTYYADSVKGRFTISRDNAKNTVYLQMNSLKPEDTAVYYCAADDSGVKVWEGDYWGQGTQVTVSS”, the “polyreactivity (PSR sort gate)” value is “low polyreactivity”. On to “QVQLVESGGGLVQAGGSLRLSCAASGSIFLQNAMGWYRQAPGKERELVAAITNGGSTNYADSVKGRFTISRDNAKNTVYLQMNSLKPEDTAVYYCAAERAILSSDKQSLWRFDYWGQGTQVTVSS”, for which the “polyreactivity (PSR sort gate)” value is “low polyreactivity”. Regarding “QVQLVESGGGLVQAGGSLRLSCAASGRTFWRNAMGWYRPAPGKERELVAVISVRGSSTSYADSVKGRFTISRDNAKNNVYFQMNILKPEDTGVYYCAAGRRYRSVGYGYWGQGTQLTVSS”, the “polyreactivity (PSR sort gate)” value is “high polyreactivity”.

With “QVQLVESGGGLVQAGGSLRLSCAASGSISYFNDMGWYRQAPGKERELVAAIRDSGGITYADSVKGRFTISRDNAKNTVYLQMNSLKPEDTAVYYCATYGNEIYDYWGLGTQVTVSS”, the “polyreactivity (PSR sort gate)” value is listed as “low polyreactivity”.

On to “QVQLVESGGGLVQAGGSLRLSCAASGFTFVRNTMGWYRQAPGKERELVAAISRSGGSTYYADSVKGRFTISRDNAKNTVYLQMYSLKPEDTAVYYCNAYRYVHYDWGQGSQVTVSS”, for which the “polyreactivity (PSR sort gate)” value is reported as “high polyreactivity”. The same measure for “QVQLVESGGCLVQAGGSLRLSCAASGRNIAYNAMGWSRQAPGKERELVASISSGGSTFYADSVKGRFTISRDNAKNTVYLQMNSLKPEDTAVYYCAKGGYWGQGTQVSVSS”: “high polyreactivity”; for “QVQLVESGGGLVQAGGSLRLSCAASGSTFRSYTMVWYRQAPGKERELVADINGTGGSTYYADSVKGRFTISRDNAKNTVYLQMNSRKPEDTAVYNCAADGYFRTVTSGWALRMGYWGQGTQVTVSS”: “high polyreactivity”.

For “QVQLVESGGGLVQAGGSLRLSCAASGFTFFLYTMGWYRQAPGKERELVATITSAGTTNYADSVKGRFTISRDNAKNTVYLQMHSLKPEDTAVDYCNADRWEYDYWGQGTQVTVSS”, the “polyreactivity (PSR sort gate)” value was “low polyreactivity”. To “QVQLVESGGGLVQAGGSLRLSCAASGYIFPFYAMGWYRQAPGKQRELVAAITESGGSTYYADSVKGRFTISRDNAKNNVYLQMNSLKPEDTAVYYCAKEVVKHPRGKLDYWGQGTQVTLSS” belongs “low polyreactivity”; to “QVQLVESGGGLVQAGGSLRLSCAASGRIFYPYAMGWYRPAPGKERELVAAITVRGGRTYYADSVKWRFTISRDNAKNTVYLQMNSLKPEDTAVYYCNAVIGWYIGSRTYPHGPLQYDYWGQGTQVTLSS”, “high polyreactivity”. As to “QVQLVESGGGLVQAGGSLRLSCAASGSTFLNYAMGWYRQAPGKERELVAAISGRGGRTYYADSVKGRFTISRDNAKNTVYLLMNSLKPEDTAVYYCAARKWVSYTSYDYWGQGTQVTVSS”, the “polyreactivity (PSR sort gate)” value was “high polyreactivity”. Regarding “QVQLVESGGGLVQAGGSLRLSCAASGSTFGRNAMGWYRQAPGKERELVAAISWRSTPTYYADSVKGRFTISRDNAKNTVYLQMNSLKPEDTAVYYCAVYYYYPSTNGYHYDYWGHGTQVTVSS”, the “polyreactivity (PSR sort gate)” value was “high polyreactivity”. For “QVQLVESGGGLVQAGGSLRLSCAASGFILGANAMGWYRQAPGKERELVAAIRSSDGTTYYADSVKGRFTISRDNAKNTVYLQMNSLKPEDTAVYYCAADWRLLYEYWGQGTQVTVSS”, the “polyreactivity (PSR sort gate)” value is “high polyreactivity”.

As to “QVQLVESGGGLVQAGGSLRLSCAASGSILRYTMGWYRQAPGKEREWVAAITRSGTSTYYADSVKGRFTISRDNAKNTVYLQMNSLKPEDTAVYYCAASAGPRASYYYWGQGTQVTVSS”, the “polyreactivity (PSR sort gate)” value is given as “high polyreactivity”. Take “QVQLVESVGGLVQAGGSLRLTCAACGVTFSYNTMGWYRQAPGKERELVAAISRSGGRTYYADSVKGRFTISRDNAKNTVYLQMNSLKPEDTAVYYCARYSVTGFGANSGPEMDYWGHGTQVTVSS”: the “polyreactivity (PSR sort gate)” value is recorded as “high polyreactivity”. As for “QVQLVESGGGLVQAGGSLRLSCAASGLIFYYYAMGWYRQAPGKERELVAAITAIGDRTYYADSVKGRFTISRDNAKNTVYLQMNSLKPEDTAVYYCAAGWLLYNRYGIITYDYWGQGTQVTVSS”, the “polyreactivity (PSR sort gate)” value was “high polyreactivity”. As to “QVQLVESGGGLVQAGGSLRLSCAASGFTFKYYAMGWYRQAPGKERELVASISYSGGRTSYADSVKGRFTISRDNAKNTVYLQMNSLKPEDTAVYYCNADVRRIDYKSRQYDYWGQGTQVTVSS”, the “polyreactivity (PSR sort gate)” value is given as “high polyreactivity”. The same measure for “QVQLVESGGGLVQAGGSLRLSCAASGRIFYGYTMGWYRPAPGKERELVAAISRYGGSTYYADSVKGRFTISRDNAKKTVYLQMNSLKPEDTAVYYCNAVYSRGYVIKPYDYWGQGTQVTVSS”: “high polyreactivity”; for “QVQLVESGGGLVQAGGSLRLSCAASGSTFDTYAMGGYRQAPGKERELVAAISYPGGNTYYADSVKGRFTISRDNAKNTVYLQMNRLKPEDTAVYYCNADVVDGGLAYDYWGQGTQVTVSS”: “low polyreactivity”. In the case of “QVQLVESGGGLVQAGGSLRLSCAASGNTFRDYAMGWYRQAPGKERELVAAITSSGARTYYADSVKGRFTISRDNAKNTVYLQMISLKPEDTAVYYCAADWSGYYTYDYWGQGTQVTVSS”, the “polyreactivity (PSR sort gate)” value was “low polyreactivity”. The same measure for “QVQLVESGGGLVQAGGSLRLSCAASGITFTENLMGWYRQAPGKERELVAGISRSGGITYFADSVKGRFTISRDNAKNTVYLQMNSLKPEDTSVYYCAADFYASYSPYYYWGQGTQVTVSS”: “high polyreactivity”; for “QVQLVESGGGLVQAGGSLRLSCAASGRTFYPYAMGWYRQAPGKERELVATIRWTGGSTYYADSVKGRFTISRDNAKNTVYLQMNSLKPEDTAVYYCAAQNYFAFIRTYRYVHRPTYYYWGQGTQVTVSS”: “high polyreactivity”; for “QVQLVESGGGLVQAGGSLRLSCAASGSTFYKYGMGWYRQAPGTERELVAAISGSGDSTYYADSVKGRFTISRDNAKNTVYLQMNSLKPEDTAVYYCNAGPWWYLHEYDYWGQGTQVTVSS”: “low polyreactivity”. “QVQLVESGGGLVQAGGSLRLSCAASGFTIYSYAMGWYRQAPGKERELVAAISSGGSTYYADSVKGRFTISRDNAKNTVYLQMNSLKPEDTAVYYCARRYQVVWYYKYDYWGQGTQVTVSS”: the “polyreactivity (PSR sort gate)” value is “high polyreactivity”.

With “QVQLVESGGGLVQAGGRLRLSCAASGSNFDIYALGWYRQAPGKERELVAAIRGRGGSTYYADSVKGRFTISRDNAKNTVYLQMNSLKPEDTAVYYCAARNSYGNWRYYYWGQGTQVTVSS”, the “polyreactivity (PSR sort gate)” value was “high polyreactivity”. With “QVHLVESGGVLVQAGGSLRLSCAASGFTFNRYAMGWYRQAPGKERELVAAITSAGNTYYADSVKARFTNSRDNGKNTVYLQMNSMKPEDTAVYYCLNGRYWRRYDYWGQGTQVTVSS”, the “polyreactivity (PSR sort gate)” value is listed as “high polyreactivity”. On to “QVQLVESGGGLVQAGGSLRLSCAASGRIFYDYTMGWYRQAPVKERELVATITSGGNTNYADSVKGRFTISRDNAKNTVYLQMNSLKPEDTEVYYCNADFGYWWDGSRYDYWGQGTQVTVSA”, for which the “polyreactivity (PSR sort gate)” value is listed as “low polyreactivity”. With “QVQLVESGGGLVQAGGSLRLSCAASGRIFYYNSMGWYRQAPGKERELVAAIRRSGSRTYYADSVKGRFTISRDNAKNTVYFQMNSLIPEDTAVYYCAAKYASFGHHDSWGQGTQVTVSS”, the “polyreactivity (PSR sort gate)” value is “high polyreactivity”.

Take “QVQLVESGGGLVQAGGSLRLSCAASGSTSRYALGWYIQAPGNERELVAAITRSGGTTYYADSVKGRFTISRDNAKNTVYLQMNSLIPEDTAVYYCATSDRQVKYDYWGQGTQVTVSS”: the “polyreactivity (PSR sort gate)” value is “low polyreactivity”.
